The source of these data is patent US20110059888A1.

[ ]: non-standard residue; d: D form. Arg(Me) = CNC(=N)NCCC[C@H](N)C(=O)O; Dap(CONH2) = NC(=O)NC[C@H](N)C(=O)O; Ala(cPr) = N[C@@H](CC1CC1)C(=O)O; Hyp = O=C(O)[C@@H]1C[C@@H](O)CN1; Cha = N[C@@H](CC1CCCCC1)C(=O)O; Cba = N[C@@H](CC1CCC1)C(=O)O; Abu = CC[C@H](N)C(=O)O; Dap = NC[C@H](N)C(=O)O

First the molecules themselves.
B1: des(1)-Ac-[D-Tyr2,Hyp3,Alb4,Dap5,Cha6,Ala(cPr)8,Arg(Me)9,Trp10]MS10 (peptide)
peptide: Ac-[dY][Hyp][Dap(CONH2)][Dap][Cha]G[Ala(cPr)][Arg(Me)]W-NH2
SMILES: CNC(=N)NCCC[C@H](NC(=O)[C@H](CC1CC1)NC(=O)CNC(=O)[C@H](CC1CCCCC1)NC(=O)[C@H](CN)NC(=O)[C@H](CNC(N)=O)NC(=O)[C@@H]1C[C@@H](O)CN1C(=O)[C@@H](Cc1ccc(O)cc1)NC(C)=O)C(=O)N[C@@H](Cc1c[nH]c2ccccc12)C(N)=O
B2: des(1)-Ac-[D-Tyr2,Hyp3,Thr5,Cha6,Ala(cPr)8,Trp10]MS10 (peptide)
peptide: Ac-[dY][Hyp]NT[Cha]G[Ala(cPr)]RW-NH2
SMILES: CC(=O)N[C@H](Cc1ccc(O)cc1)C(=O)N1C[C@H](O)C[C@H]1C(=O)N[C@@H](CC(N)=O)C(=O)N[C@H](C(=O)N[C@@H](CC1CCCCC1)C(=O)NCC(=O)N[C@@H](CC1CC1)C(=O)N[C@@H](CCCNC(=N)N)C(=O)N[C@@H](Cc1c[nH]c2ccccc12)C(N)=O)[C@@H](C)O
B3: des(1)-Ac-[D-Tyr2,Hyp3,Alb4,Thr5,Cha6,Ala(cPr)8,Arg(Me)9,Trp10]MS10 (peptide)
peptide: Ac-[dY][Hyp][Dap(CONH2)]T[Cha]G[Ala(cPr)][Arg(Me)]W-NH2
SMILES: CNC(=N)NCCC[C@H](NC(=O)[C@H](CC1CC1)NC(=O)CNC(=O)[C@H](CC1CCCCC1)NC(=O)[C@@H](NC(=O)[C@H](CNC(N)=O)NC(=O)[C@@H]1C[C@@H](O)CN1C(=O)[C@@H](Cc1ccc(O)cc1)NC(C)=O)[C@@H](C)O)C(=O)N[C@@H](Cc1c[nH]c2ccccc12)C(N)=O
B4: des(1)-Ac-[D-Tyr2,Hyp3,Alb4,Ser5,Cha6,Ala(cPr)8,Arg(Me)9,Trp10]MS10 (peptide)
peptide: Ac-[dY][Hyp][Dap(CONH2)]S[Cha]G[Ala(cPr)][Arg(Me)]W-NH2
SMILES: CNC(=N)NCCC[C@H](NC(=O)[C@H](CC1CC1)NC(=O)CNC(=O)[C@H](CC1CCCCC1)NC(=O)[C@H](CO)NC(=O)[C@H](CNC(N)=O)NC(=O)[C@@H]1C[C@@H](O)CN1C(=O)[C@@H](Cc1ccc(O)cc1)NC(C)=O)C(=O)N[C@@H](Cc1c[nH]c2ccccc12)C(N)=O
B5: des(1)-Ac-[D-Tyr2,Hyp3,Alb4,Gly5,Cha6,Ala(cPr)8,Arg(Me)9,Trp10]MS10 (peptide)
peptide: Ac-[dY][Hyp][Dap(CONH2)]G[Cha]G[Ala(cPr)][Arg(Me)]W-NH2
SMILES: CNC(=N)NCCC[C@H](NC(=O)[C@H](CC1CC1)NC(=O)CNC(=O)[C@H](CC1CCCCC1)NC(=O)CNC(=O)[C@H](CNC(N)=O)NC(=O)[C@@H]1C[C@@H](O)CN1C(=O)[C@@H](Cc1ccc(O)cc1)NC(C)=O)C(=O)N[C@@H](Cc1c[nH]c2ccccc12)C(N)=O
B6: des(1)-Ac-[D-Tyr2,Hyp3,Alb4,Ala5,Cha6,Ala(cPr)8,Arg(Me)9,Trp10]MS10 (peptide)
peptide: Ac-[dY][Hyp][Dap(CONH2)]A[Cha]G[Ala(cPr)][Arg(Me)]W-NH2
SMILES: CNC(=N)NCCC[C@H](NC(=O)[C@H](CC1CC1)NC(=O)CNC(=O)[C@H](CC1CCCCC1)NC(=O)[C@H](C)NC(=O)[C@H](CNC(N)=O)NC(=O)[C@@H]1C[C@@H](O)CN1C(=O)[C@@H](Cc1ccc(O)cc1)NC(C)=O)C(=O)N[C@@H](Cc1c[nH]c2ccccc12)C(N)=O
B7: des(1)-Ac-[D-Tyr2,Glu3,Thr5,Cha6,Ala(cPr)8,Trp10]MS10 (peptide)
peptide: Ac-[dY]ENT[Cha]G[Ala(cPr)]RW-NH2
SMILES: CC(=O)N[C@H](Cc1ccc(O)cc1)C(=O)N[C@@H](CCC(=O)O)C(=O)N[C@@H](CC(N)=O)C(=O)N[C@H](C(=O)N[C@@H](CC1CCCCC1)C(=O)NCC(=O)N[C@@H](CC1CC1)C(=O)N[C@@H](CCCNC(=N)N)C(=O)N[C@@H](Cc1c[nH]c2ccccc12)C(N)=O)[C@@H](C)O

For this test, the target named is human OT7T175 (metastin receptor) (human) (UniProt Q969F8). Briefly: cell-based or functional assay.
Sequence of UniProt Q969F8 (Q969F8 whole entry L364H): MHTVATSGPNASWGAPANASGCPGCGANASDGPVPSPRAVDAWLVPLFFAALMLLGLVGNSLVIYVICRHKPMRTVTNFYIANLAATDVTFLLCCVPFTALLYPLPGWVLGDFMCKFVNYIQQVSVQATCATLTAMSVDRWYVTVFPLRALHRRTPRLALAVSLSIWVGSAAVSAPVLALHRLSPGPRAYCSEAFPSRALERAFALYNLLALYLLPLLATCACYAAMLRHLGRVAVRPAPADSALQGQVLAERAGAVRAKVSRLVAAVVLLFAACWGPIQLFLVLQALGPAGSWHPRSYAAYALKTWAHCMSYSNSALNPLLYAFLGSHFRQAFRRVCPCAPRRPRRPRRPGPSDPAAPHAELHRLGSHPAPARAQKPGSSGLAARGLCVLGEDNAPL
With B1, the Specific Activity (EC50 of test compound based on EC50 of Metastin (45-54); intracellular calcium, FLIPR) (ratio to EC50 of Metastin (45-54)) turned out to be 0.7.

With B2, the Specific Activity (EC50 of test compound based on EC50 of Metastin (45-54); intracellular calcium, FLIPR) (ratio to EC50 of Metastin (45-54)) was 0.5.

As to Ac-[dY][Hyp]NT[Cba]G[Ala(cPr)][Arg(Me)]W-NH2 [des(1)-Ac-[D-Tyr2,Hyp3,Thr5,Ala(cBu)6,Ala(cPr)8,Arg(Me)9,Trp10]MS10], the Specific Activity (EC50 of test compound based on EC50 of Metastin (45-54); intracellular calcium, FLIPR) (ratio to EC50 of Metastin (45-54)) is 0.7.

B3: the Specific Activity (EC50 of test compound based on EC50 of Metastin (45-54); intracellular calcium, FLIPR) (ratio to EC50 of Metastin (45-54)) stood at 0.5.

Turning to Ac-[dY][Hyp]NTFGL[Arg(Me)]W-NH2 (also: Phe5-Gly6 amide bond replaced by CH2S) [des(1)-Ac-[D-Tyr2,Hyp3,Thr5,Phe6Ψ(CH2S)Gly7,Arg(Me)9,Trp10]MS10], the Specific Activity (EC50 of test compound based on EC50 of Metastin (45-54); intracellular calcium, FLIPR) (ratio to EC50 of Metastin (45-54)) was 0.7.

As for B4, the Specific Activity (EC50 of test compound based on EC50 of Metastin (45-54); intracellular calcium, FLIPR) (ratio to EC50 of Metastin (45-54)) stood at 0.5.

Regarding Ac-[dY][Hyp][Dap(CONH2)]T[Cha]GLRW-NH2 (also: Gly7-Leu8 amide bond replaced by -CH2CH2-) [des(1)-Ac-[D-Tyr2,Hyp3,Alb4,Thr5,Cha6,Gly7Ψ(CH2CH2)Leu8,Trp10]MS10], the Specific Activity (EC50 of test compound based on EC50 of Metastin (45-54); intracellular calcium, FLIPR) (ratio to EC50 of Metastin (45-54)) turned out to be 1.3.

On to Ac-[dY][Hyp]NT[Cha]G[Cha][Arg(Me)]W-NH2 [des(1)-Ac-[D-Tyr2,Hyp3,Thr5,Cha6,8,Arg(Me)9,Trp10]MS10], for which the Specific Activity (EC50 of test compound based on EC50 of Metastin (45-54); intracellular calcium, FLIPR) (ratio to EC50 of Metastin (45-54)) turned out to be 3.5.

Ac-[dY][Hyp]NTF[Abu]L[Arg(Me)]W-NH2 [des(1)-Ac-[D-Tyr2,Hyp3,Thr5,Abu7,Arg(Me)9,Trp10]MS10]: the Specific Activity (EC50 of test compound based on EC50 of Metastin (45-54); intracellular calcium, FLIPR) (ratio to EC50 of Metastin (45-54)) amounted to 1.

In the case of Ac-[dY][Hyp]NT[Cha]GLRW-NH2 (also: Gly7Ψ(CH2CH2)Leu8: amide between Gly and Leu replaced by -CH2CH2-) [des(1)-Ac-[D-Tyr2,Hyp3,Thr5,Cha6,Gly7Ψ(CH2CH2)Leu8,Trp10]MS10], the Specific Activity (EC50 of test compound based on EC50 of Metastin (45-54); intracellular calcium, FLIPR) (ratio to EC50 of Metastin (45-54)) was found to be 1.1.

Regarding Ac-[dY][Hyp]NTF[Dap]L[Arg(Me)]W-NH2 [des(1)-Ac-[D-Tyr2,Hyp3,Thr5,Dap7,Arg(Me)9,Trp10]MS10], the Specific Activity (EC50 of test compound based on EC50 of Metastin (45-54); intracellular calcium, FLIPR) (ratio to EC50 of Metastin (45-54)) is 1.3.

Turning to B5, the Specific Activity (EC50 of test compound based on EC50 of Metastin (45-54); intracellular calcium, FLIPR) (ratio to EC50 of Metastin (45-54)) stood at 0.7.

Consider B6, for which the Specific Activity (EC50 of test compound based on EC50 of Metastin (45-54); intracellular calcium, FLIPR) (ratio to EC50 of Metastin (45-54)) was determined as 0.5.

Ac-[dY][Hyp][Dap(CONH2)]T[Cha]GL[Arg(Me)]W-NH2 (also: Gly7-Leu8 amide bond replaced by -CH2CH2-) [des(1)-Ac-[D-Tyr2,Hyp3,Alb4,Thr5,Cha6,Gly7Ψ(CH2CH2)Leu8,Arg(Me)9,Trp10]MS10]: the Specific Activity (EC50 of test compound based on EC50 of Metastin (45-54); intracellular calcium, FLIPR) (ratio to EC50 of Metastin (45-54)) amounted to 1.1.

Take Ac-[dY][Hyp]NT[Cha]G[Cba][Arg(Me)]W-NH2 [des(1)-Ac-[D-Tyr2,Hyp3,Thr5,Cha6,Ala(cBu)8,Arg(Me)9,Trp10]MS10]: the Specific Activity (EC50 of test compound based on EC50 of Metastin (45-54); intracellular calcium, FLIPR) (ratio to EC50 of Metastin (45-54)) was 0.5.

Consider B7, for which the Specific Activity (EC50 of test compound based on EC50 of Metastin (45-54); intracellular calcium, FLIPR) (ratio to EC50 of Metastin (45-54)) amounted to 0.4.
